According to US20250002610A1 (Genmab, published 2025):
Changes are numbered by the printed parent chain.

T1: human DR4 (Death Receptor 4), cell surface expressed on human tumor cell lines (human, UniProt O00220 24-468)
T1 construct: also called TNFRSF10A; TRAIL-R1
T1 sequence: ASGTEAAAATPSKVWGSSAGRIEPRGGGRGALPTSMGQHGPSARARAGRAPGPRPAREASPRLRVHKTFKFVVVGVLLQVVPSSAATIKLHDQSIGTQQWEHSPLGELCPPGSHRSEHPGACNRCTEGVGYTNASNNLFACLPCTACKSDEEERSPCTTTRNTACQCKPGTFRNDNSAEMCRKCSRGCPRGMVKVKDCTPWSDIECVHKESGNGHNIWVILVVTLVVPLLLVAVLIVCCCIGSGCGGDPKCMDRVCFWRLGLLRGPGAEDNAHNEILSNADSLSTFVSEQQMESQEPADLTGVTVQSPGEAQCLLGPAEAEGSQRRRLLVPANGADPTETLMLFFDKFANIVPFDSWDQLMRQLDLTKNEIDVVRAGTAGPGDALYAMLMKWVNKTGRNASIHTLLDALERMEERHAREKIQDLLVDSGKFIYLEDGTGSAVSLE

T2: human FAPα (Fibroblast activation protein alpha), cell surface expressed (human, UniProt Q12884 1-760)
T2 construct: Endogenous on human lung fibroblasts and CAFs
T2 sequence: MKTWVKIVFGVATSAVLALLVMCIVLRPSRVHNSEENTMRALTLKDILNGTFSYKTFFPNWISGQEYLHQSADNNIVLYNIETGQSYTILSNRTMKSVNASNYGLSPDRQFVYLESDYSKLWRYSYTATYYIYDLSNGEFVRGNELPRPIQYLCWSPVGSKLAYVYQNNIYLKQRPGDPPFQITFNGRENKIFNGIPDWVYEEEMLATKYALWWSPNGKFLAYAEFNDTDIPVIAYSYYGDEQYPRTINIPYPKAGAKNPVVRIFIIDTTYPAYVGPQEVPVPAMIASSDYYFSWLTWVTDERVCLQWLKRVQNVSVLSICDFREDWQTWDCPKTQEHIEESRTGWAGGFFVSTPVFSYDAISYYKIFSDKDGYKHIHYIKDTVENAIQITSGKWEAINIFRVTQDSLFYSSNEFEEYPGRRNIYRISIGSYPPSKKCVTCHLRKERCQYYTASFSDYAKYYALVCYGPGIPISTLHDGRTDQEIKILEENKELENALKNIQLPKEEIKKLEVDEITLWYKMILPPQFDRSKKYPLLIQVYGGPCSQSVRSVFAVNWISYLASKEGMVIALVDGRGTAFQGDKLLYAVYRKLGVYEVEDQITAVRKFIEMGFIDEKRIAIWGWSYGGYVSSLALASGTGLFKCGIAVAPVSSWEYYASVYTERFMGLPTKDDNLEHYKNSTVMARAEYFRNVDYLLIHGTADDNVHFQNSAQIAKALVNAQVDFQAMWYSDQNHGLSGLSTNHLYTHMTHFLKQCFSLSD

B1: IgG1-DR4-FERR (antibody, V domains shown)
VH: QVQLQESGPGLVKPSGTLSLTCAVSGGSISSYSWWSWIRQPPGKGLEWIGELYHSGSTNYNPSLKSRVTISVDKSKNQFSLKLRSVTAADTAVYYCVRGVATIDYWGQGTLVTVSS
VL: QSALTQPPSASGSPGQSVTISCTGTSSDVGGYNFVSWYQQDPGKAPKLLIYEVTKRPSGVPDRFSGSKSGNTASLTVSGLQAEDEADYYCSSYAGSNNVMFGGGTKLTVLG
notes: Bivalent monoclonal IgG1 lambda
B2: BisG1-FAPα-FERL/b12-FERR (bispecific antibody, human IgG1, kappa)
heavy 1: EVQLLESGGGLVQPGGSPRLSCEASGFTFSSYALSWVRQAPGKGLEWVSAISGSGGGRYYADSVKGRFTISRDNSKNTLFLQMNSLRAEDTAVYYCAKEGYSSSGTYWDHWGQGTLVTVSSASTKGPSVFPLAPSSKSTSGGTAALGCLVKDYFPEPVTVSWNSGALTSGVHTFPAVLQSSGLYSLSSVVTVPSSSLGTQTYICNVNHKPSNTKVDKRVEPKSCDKTHTCPPCPAPEFERGPSVFLFPPKPKDTLMISRTPEVTCVVVDVSHEDPEVKFNWYVDGVEVHNAKTKPREEQYNSTYRVVSVLTVLHQDWLNGKEYKCKVSNKALPAPIEKTISKAKGQPREPQVYTLPPSREEMTKNQVSLTCLVKGFYPSDIAVEWESNGQPENNYKTTPPVLDSDGSFLLYSKLTVDKSRWQQGNVFSCSVMHEALHNHYTQKSLSLSPG
light 1: AIQMTQSPSSVSASVGDRVTITCRASQGVSSWLAWYQQKPGRAPKLLIYVASTLQSGVPSRFSGSGSGTDFTLTINSLQPEDFATYYCQQANSFPPTFGQGTRLEMKRTVAAPSVFIFPPSDEQLKSGTASVVCLLNNFYPREAKVQWKVDNALQSGNSQESVTEQDSKDSTYSLSSTLTLSKADYEKHKVYACEVTHQGLSSPVTKSFNRGEC
heavy 2: QVQLVQSGAEVKKPGASVKVSCQASGYRFSNFVIHWVRQAPGQRFEWMGWINPYNGNKEFSAKFQDRVTFTADTSANTAYMELRSLRSADTAVYYCARVGPYSWDDSPQDNYYMDVWGKGTTVIVSSASTKGPSVFPLAPSSKSTSGGTAALGCLVKDYFPEPVTVSWNSGALTSGVHTFPAVLQSSGLYSLSSVVTVPSSSLGTQTYICNVNHKPSNTKVDKRVEPKSCDKTHTCPPCPAPEFERGPSVFLFPPKPKDTLMISRTPEVTCVVVDVSHEDPEVKFNWYVDGVEVHNAKTKPREEQYNSTYRVVSVLTVLHQDWLNGKEYKCKVSNKALPAPIEKTISKAKGQPREPQVYTLPPSREEMTKNQVSLTCLVKGFYPSDIAVEWESNGQPENNYKTTPPVLDSDGSFFLYSRLTVDKSRWQQGNVFSCSVMHEALHNHYTQKSLSLSPG
light 2: EIVLTQSPGTLSLSPGERATFSCRSSHSIRSRRVAWYQHKPGQAPRLVIHGVSNRASGISDRFSGSGSGTDFTLTITRVEPEDFALYYCQVYGASSYTFGQGTKLERKRTVAAPSVFIFPPSDEQLKSGTASVVCLLNNFYPREAKVQWKVDNALQSGNSQESVTEQDSKDSTYSLSSTLTLSKADYEKHKVYACEVTHQGLSSPVTKSFNRGEC
B3: BisG1-b12-FERL/DR4-FERR (bispecific antibody, human IgG1, kappa, lambda)
heavy 1: B2 heavy 2 with F415L, R419K
light 1: B2 light 2
heavy 2: QVQLQESGPGLVKPSGTLSLTCAVSGGSISSYSWWSWIRQPPGKGLEWIGELYHSGSTNYNPSLKSRVTISVDKSKNQFSLKLRSVTAADTAVYYCVRGVATIDYWGQGTLVTVSSASTKGPSVFPLAPSSKSTSGGTAALGCLVKDYFPEPVTVSWNSGALTSGVHTFPAVLQSSGLYSLSSVVTVPSSSLGTQTYICNVNHKPSNTKVDKRVEPKSCDKTHTCPPCPAPEFERGPSVFLFPPKPKDTLMISRTPEVTCVVVDVSHEDPEVKFNWYVDGVEVHNAKTKPREEQYNSTYRVVSVLTVLHQDWLNGKEYKCKVSNKALPAPIEKTISKAKGQPREPQVYTLPPSREEMTKNQVSLTCLVKGFYPSDIAVEWESNGQPENNYKTTPPVLDSDGSFFLYSRLTVDKSRWQQGNVFSCSVMHEALHNHYTQKSLSLSPG
light 2: QSALTQPPSASGSPGQSVTISCTGTSSDVGGYNFVSWYQQDPGKAPKLLIYEVTKRPSGVPDRFSGSKSGNTASLTVSGLQAEDEADYYCSSYAGSNNVMFGGGTKLTVLGQPKAAPSVTLFPPSSEELQANKATLVCLISDFYPGAVTVAWKADSSPVKAGVETTTPSKQSNNKYAASSYLSLTPEQWKSHRSYSCQVTHEGSTVEKTVAPTECS
notes: Fab-arm exchange of IgG1-b12-FERL and IgG1-DR4-FERR; also called bsIgG1-ctrl-FERLxDR4-FERR
B4: IgG1-FAPα-FERL (antibody)
heavy: B2 heavy 1
light: B2 light 1
notes: Bivalent monoclonal IgG1 kappa

Experiments:
[1] = target: T1, human DR4 (Death Receptor 4), cell …; assay: flow cytometry, DLD-1 cells, n = 2
[2] = target: T1, human DR4 (Death Receptor 4), cell …; assay: flow cytometry, HCT-15 cells, n = 3
[3] = target: T1, human DR4 (Death Receptor 4), cell …; assay: flow cytometry, PANC-1 cells, n = 3
[4] = target: T1, human DR4 (Death Receptor 4), cell …; assay: flow cytometry, MDA-MB-231 cells, n = 1
[5] = target: T1, human DR4 (Death Receptor 4), cell …; assay: flow cytometry, MDA-MB-231 cells, average ± SEM
[6] = target: T2, human FAPα (Fibroblast activation …); assay: flow cytometry, human lung fibroblasts, average ± SEM
Protocol: Binding of bispecific or monoclonal antibodies carrying the anti-FAPα arm derived from IgG1-FAPα-FERL (BisG1-FAPα-FERL/DR4-FERR, BisG1-FAPα-FERL/b12-FERR, and IgG1-FAPα-FERL) to cell surface expressed human FAPα was analyzed by flow cytometry using human lung fibroblasts and CAFs, which endogenously express FAPα. BisG1-b12-FERL/b12-FERR was used as negative control.
Human lung fibroblasts and CAFs (50,000 cells/well) were seeded in 96-Well round bottom plates (Greiner Bio-one, Cat #650101). Antibody dilutions were prepared using fluorescence-activated cell sorting (FACS) buffer, consisting of phosphate buffer saline (PBS, Lonza, Cat #BE17-517Q)+1% Bovine Serum Albumin (BSA, Roche, Cat #10735086001)+0.02% Sodium Azide (Bio-World, Cat #41920044-3). Plates were centrifuged, supernatant was removed, cells were resuspended in 50 μL of human Fc Block (BD, Cat #564220, diluted 1:100 in FACS buffer) and 50 μL of viability stain TO-PRO-3 Iodide (Thermo Fisher, Cat #T3605, diluted 1: 25,000 in FACS buffer), and incubated for 15 min at 4° C. Plates were washed three times with FACS buffer. Plates were centrifuged, supernatant was removed, cells were resuspended in 50 μL of antibody dilutions (concentration range 90-0.0005 μg/mL, three-fold dilution steps using FACS buffer) of BisG1-FAPα-FERL/DR4-FERR, BisG1-FAPα-FERL/b12-FERR, BisG1-b12-FERL/b12-FERR (top six concentrations only for CAFs culture) or IgG1-FAPα-FERL (top four concentrations only for CAFs culture) and incubated for 30 min at 4° C. Cells were washed three times with FACS buffer and resuspended in 50 μL of Fluorescein isothiocyanate (FITC)-labeled polyclonal antibody goat anti-mouse IgG1 (Jackson Immuno Research, Cat #109-096-097, diluted 1:100 in FACS buffer). […] Antibody binding to viable cells (TO-PRO-3 negative) was analyzed by flow cytometry on a FACSCelesta™ (BD biosciences) and data were processed using FlowJo_v10.8.1 (FlowJo LLC). Geomean fluorescence intensity, gMFI, was determined and visualized using GraphPad Prism.

Binder	EC50 [1] [µg/mL]	EC50 [2] [µg/mL]	EC50 [3] [µg/mL]	EC50 [4] [µg/mL]	EC50 [5] [µg/mL]	EC50 [6] [µg/mL]
B1	0.22	0.15	0.39	0.33	0.32	
B2						0.041
B3	0.68	0.53	1.44	1.14	1.02	
B4						0.015
